According to patent US20220356235A1 (STICHTING SANQUIN BLOEDVOORZIENING, published 2022):

B1: FH complexed with anti-FH.07 Fab′ fragment (other, human)
chain: EDCNELPPRRNTEILTGSWSDQTYPEGTQAIYKCRPGYRSLGNVIMVCRKGEWVALNPLRKCQKRPCGHPGDTPFGTFTLTGGNVFEYGVKAVYTCNEGYQLLGEINYRECDTDGWTNDIPICEVVKCLPVTAPENGKIVSSAMEPDREYHFGQAVRFVCNSGYKIEGDEEMHCSDDGFWSKEKPKCVEISCKSPDVINGSPISQKIIYKENERFQYKCNMGYEYSERGDAVCTESGWRPLPSCEEKSCDNPYIPNGDYSPLRIKHRTGDEITYQCRNGFYPATRGNTAKCTSTGWIPAPRCTLKPCDYPDIKHGGLYHENMRRPYFPVAVGKYYSYYCDEHFETPSGSYWDHIHCTQDGWSPAVPCLRKCYFPYLENGYNQNYGRKFVQGKSIDVACHPGYALPKAQTTVTCMENGWSPTPRCIRVKTCSKSSIDIENGFISESQYTYALKEKAKYQCKLGYVTADGETSGSITCGKDGWSAQPTCIKSCDIPVFMNARTKNDFTWFKLNDTLDYECHDGYESNTGSTTGSIVCGYNGWSDLPICYERECELPKIDVHLVPDRKKDQYKVGEVLKFSCKPGFTIVGPNSVQCYHFGLSPDLPICKEQVQSCGPPPELLNGNVKEKTKEEYGHSEVVEYYCNPRFLMKGPNKIQCVDGEWTTLPVCIVEESTCGDIPELEHGWAQLSSPPYYYGDSVEFNCSESFTMIGHRSITCIHGVWTQLPQCVAIDKLKKCKSSNLIILEEHLKNKKEFDHNSNIRYRCRGKEGWIHTVCINGRWDPEVNCSMAQIQLCPPPPQIPNSHNMTTTLNYRDGEKVSVLCQENYLIQEGEEITCKDGRWQSIPLCVEKIPCSQPPQIEHGTINSSRSSQESYAHGTKLSYTCEGGFRISEENETTCYMGKWSSPPQCEGLPCKSPPEISHGVVAHMSDSYQYGEEVTYKCFEGFGIDGPAIAKCLGEKWSHPPSCIKTDCLSLPSFENAIPMGEKKDVYKAGEQVTYTCATYYKMDGASNVTCINSRWTGRPTCRDTSCVNPPTVQNAYIVSRQMSKYPSGERVRYQCRSPYEMFGDEEVMCLNGNWTEPPQCKDSTGKCGPPPPIDNGDITSFPLSVYAPASSVEYQCQNLYQLEGNKRITCRNGQWSEPPKCLHPCVISREIMENYNIALRWTAKQKLYSRTGESVEFVCKRGYRLSSRSHTLRTTCWDGKLEYPTCAKR
VH: QVQLQQSGPGLVQPSQSLSITCTVSDFSLARYGVHWIRQSPGKGLEWLGVIWSGGTADYNAAFISRLNINKDNSKSQVFFKMNSLQANDTAIYYCARNFGNYAVDYWGQGTS
VL: QIVLSQSPTFLSASPGEKVTVTCRASSSVKYMHWYQQKPGASPKPWIFATSNLASGVPARFSGSGSGTSYSLTISRVEAEDAATYYCQQWSIIPPTFGNGTKLELK
notes: mature; also called FH in presence of 10 µM anti-FH.07 Fab′
B2: FH complexed with anti-FHR-1 8E4 Fab′ fragment (other, human)
chain: EDCNELPPRRNTEILTGSWSDQTYPEGTQAIYKCRPGYRSLGNVIMVCRKGEWVALNPLRKCQKRPCGHPGDTPFGTFTLTGGNVFEYGVKAVYTCNEGYQLLGEINYRECDTDGWTNDIPICEVVKCLPVTAPENGKIVSSAMEPDREYHFGQAVRFVCNSGYKIEGDEEMHCSDDGFWSKEKPKCVEISCKSPDVINGSPISQKIIYKENERFQYKCNMGYEYSERGDAVCTESGWRPLPSCEEKSCDNPYIPNGDYSPLRIKHRTGDEITYQCRNGFYPATRGNTAKCTSTGWIPAPRCTLKPCDYPDIKHGGLYHENMRRPYFPVAVGKYYSYYCDEHFETPSGSYWDHIHCTQDGWSPAVPCLRKCYFPYLENGYNQNYGRKFVQGKSIDVACHPGYALPKAQTTVTCMENGWSPTPRCIRVKTCSKSSIDIENGFISESQYTYALKEKAKYQCKLGYVTADGETSGSITCGKDGWSAQPTCIKSCDIPVFMNARTKNDFTWFKLNDTLDYECHDGYESNTGSTTGSIVCGYNGWSDLPICYERECELPKIDVHLVPDRKKDQYKVGEVLKFSCKPGFTIVGPNSVQCYHFGLSPDLPICKEQVQSCGPPPELLNGNVKEKTKEEYGHSEVVEYYCNPRFLMKGPNKIQCVDGEWTTLPVCIVEESTCGDIPELEHGWAQLSSPPYYYGDSVEFNCSESFTMIGHRSITCIHGVWTQLPQCVAIDKLKKCKSSNLIILEEHLKNKKEFDHNSNIRYRCRGKEGWIHTVCINGRWDPEVNCSMAQIQLCPPPPQIPNSHNMTTTLNYRDGEKVSVLCQENYLIQEGEEITCKDGRWQSIPLCVEKIPCSQPPQIEHGTINSSRSSQESYAHGTKLSYTCEGGFRISEENETTCYMGKWSSPPQCEGLPCKSPPEISHGVVAHMSDSYQYGEEVTYKCFEGFGIDGPAIAKCLGEKWSHPPSCIKTDCLSLPSFENAIPMGEKKDVYKAGEQVTYTCATYYKMDGASNVTCINSRWTGRPTCRDTSCVNPPTVQNAYIVSRQMSKYPSGERVRYQCRSPYEMFGDEEVMCLNGNWTEPPQCKDSTGKCGPPPPIDNGDITSFPLSVYAPASSVEYQCQNLYQLEGNKRITCRNGQWSEPPKCLHPCVISREIMENYNIALRWTAKQKLYSRTGESVEFVCKRGYRLSSRSHTLRTTCWDGKLEYPTCAKR
VH: QVQLKQSGPGLVQPSQSLSITCTVSDFSLTNSGVHWVRQSPGKGLEWLGVIWSGGTTEYNAAFMSRLTITKDNSKSQVFFKMNSLLVDDTGIYYCARNFGNYAVDYWGQGTSVTVSS
VL: QIVLSQSPAILSASPGEKVTMTCRASSSVRYMHWYQQKAGSSPTAWIFATSNLASGVPPRFSGSGSGTSYSLTISRVEAEDAATYYCQQWGTKPPTFGAGTKLELK
notes: mature; also called FH in presence of 10 µM anti-FHR-1 8E4 Fab′
B3: FH complexed with anti-FHR-1 3B4 Fab′ fragment (other, human)
chain: EDCNELPPRRNTEILTGSWSDQTYPEGTQAIYKCRPGYRSLGNVIMVCRKGEWVALNPLRKCQKRPCGHPGDTPFGTFTLTGGNVFEYGVKAVYTCNEGYQLLGEINYRECDTDGWTNDIPICEVVKCLPVTAPENGKIVSSAMEPDREYHFGQAVRFVCNSGYKIEGDEEMHCSDDGFWSKEKPKCVEISCKSPDVINGSPISQKIIYKENERFQYKCNMGYEYSERGDAVCTESGWRPLPSCEEKSCDNPYIPNGDYSPLRIKHRTGDEITYQCRNGFYPATRGNTAKCTSTGWIPAPRCTLKPCDYPDIKHGGLYHENMRRPYFPVAVGKYYSYYCDEHFETPSGSYWDHIHCTQDGWSPAVPCLRKCYFPYLENGYNQNYGRKFVQGKSIDVACHPGYALPKAQTTVTCMENGWSPTPRCIRVKTCSKSSIDIENGFISESQYTYALKEKAKYQCKLGYVTADGETSGSITCGKDGWSAQPTCIKSCDIPVFMNARTKNDFTWFKLNDTLDYECHDGYESNTGSTTGSIVCGYNGWSDLPICYERECELPKIDVHLVPDRKKDQYKVGEVLKFSCKPGFTIVGPNSVQCYHFGLSPDLPICKEQVQSCGPPPELLNGNVKEKTKEEYGHSEVVEYYCNPRFLMKGPNKIQCVDGEWTTLPVCIVEESTCGDIPELEHGWAQLSSPPYYYGDSVEFNCSESFTMIGHRSITCIHGVWTQLPQCVAIDKLKKCKSSNLIILEEHLKNKKEFDHNSNIRYRCRGKEGWIHTVCINGRWDPEVNCSMAQIQLCPPPPQIPNSHNMTTTLNYRDGEKVSVLCQENYLIQEGEEITCKDGRWQSIPLCVEKIPCSQPPQIEHGTINSSRSSQESYAHGTKLSYTCEGGFRISEENETTCYMGKWSSPPQCEGLPCKSPPEISHGVVAHMSDSYQYGEEVTYKCFEGFGIDGPAIAKCLGEKWSHPPSCIKTDCLSLPSFENAIPMGEKKDVYKAGEQVTYTCATYYKMDGASNVTCINSRWTGRPTCRDTSCVNPPTVQNAYIVSRQMSKYPSGERVRYQCRSPYEMFGDEEVMCLNGNWTEPPQCKDSTGKCGPPPPIDNGDITSFPLSVYAPASSVEYQCQNLYQLEGNKRITCRNGQWSEPPKCLHPCVISREIMENYNIALRWTAKQKLYSRTGESVEFVCKRGYRLSSRSHTLRTTCWDGKLEYPTCAKR
VH: QVQLRQSGPGLVQPSQSLSITCTVSGFSLTNYGVYWVRQSPGKGLEWLGVIWSGGTTDYSAAFISRLSISKDNSKSQVFFKMNSLQADDTAIYYCARNFGNYAMDYWGQGTSVTVSS
VL: QIVLSQSPTILSASPGEKVTMTCRASSSVTYMHWYQQKPGSSPKPWIYATSNLASGVPARFSGSGSGTSYSLTISRVEAEDAATYYCQQRSSSNPLTFGAGTKLELK
notes: mature; also called FH in presence of 10 µM anti-FHR-1 3B4 Fab′

Key:
[1] = target: T1, C3b (UniProt P01024 23-667; P01024 749-1663, limits assumed); experiment: SPR on immobilised C3b, FH with Fab′ against FH alone
T1 construct: C3b has two chains (beta and alpha') derived from C3; also called purified C3b (Complement Technologies)
T1 sequence (P01024 23-667 limits assumed, chain 1 of 2): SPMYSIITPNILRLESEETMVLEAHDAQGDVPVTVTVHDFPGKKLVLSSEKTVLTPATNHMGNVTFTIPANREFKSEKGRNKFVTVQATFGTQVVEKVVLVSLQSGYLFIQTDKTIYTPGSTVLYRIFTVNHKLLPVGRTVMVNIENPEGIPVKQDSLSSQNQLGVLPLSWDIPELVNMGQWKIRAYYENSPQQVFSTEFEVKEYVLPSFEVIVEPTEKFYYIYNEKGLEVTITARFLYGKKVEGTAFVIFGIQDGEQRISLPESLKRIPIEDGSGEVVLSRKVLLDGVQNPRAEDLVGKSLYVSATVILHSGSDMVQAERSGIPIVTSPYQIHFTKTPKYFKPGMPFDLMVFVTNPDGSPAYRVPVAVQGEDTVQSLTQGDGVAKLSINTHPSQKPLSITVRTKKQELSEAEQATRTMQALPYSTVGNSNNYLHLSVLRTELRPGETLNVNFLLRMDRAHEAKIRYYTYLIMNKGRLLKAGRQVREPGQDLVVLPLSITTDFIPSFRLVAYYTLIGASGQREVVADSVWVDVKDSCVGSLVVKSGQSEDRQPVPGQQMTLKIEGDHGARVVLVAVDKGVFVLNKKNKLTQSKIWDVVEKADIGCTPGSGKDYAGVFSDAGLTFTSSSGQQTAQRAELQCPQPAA
T1 sequence (P01024 749-1663 limits assumed, chain 2 of 2): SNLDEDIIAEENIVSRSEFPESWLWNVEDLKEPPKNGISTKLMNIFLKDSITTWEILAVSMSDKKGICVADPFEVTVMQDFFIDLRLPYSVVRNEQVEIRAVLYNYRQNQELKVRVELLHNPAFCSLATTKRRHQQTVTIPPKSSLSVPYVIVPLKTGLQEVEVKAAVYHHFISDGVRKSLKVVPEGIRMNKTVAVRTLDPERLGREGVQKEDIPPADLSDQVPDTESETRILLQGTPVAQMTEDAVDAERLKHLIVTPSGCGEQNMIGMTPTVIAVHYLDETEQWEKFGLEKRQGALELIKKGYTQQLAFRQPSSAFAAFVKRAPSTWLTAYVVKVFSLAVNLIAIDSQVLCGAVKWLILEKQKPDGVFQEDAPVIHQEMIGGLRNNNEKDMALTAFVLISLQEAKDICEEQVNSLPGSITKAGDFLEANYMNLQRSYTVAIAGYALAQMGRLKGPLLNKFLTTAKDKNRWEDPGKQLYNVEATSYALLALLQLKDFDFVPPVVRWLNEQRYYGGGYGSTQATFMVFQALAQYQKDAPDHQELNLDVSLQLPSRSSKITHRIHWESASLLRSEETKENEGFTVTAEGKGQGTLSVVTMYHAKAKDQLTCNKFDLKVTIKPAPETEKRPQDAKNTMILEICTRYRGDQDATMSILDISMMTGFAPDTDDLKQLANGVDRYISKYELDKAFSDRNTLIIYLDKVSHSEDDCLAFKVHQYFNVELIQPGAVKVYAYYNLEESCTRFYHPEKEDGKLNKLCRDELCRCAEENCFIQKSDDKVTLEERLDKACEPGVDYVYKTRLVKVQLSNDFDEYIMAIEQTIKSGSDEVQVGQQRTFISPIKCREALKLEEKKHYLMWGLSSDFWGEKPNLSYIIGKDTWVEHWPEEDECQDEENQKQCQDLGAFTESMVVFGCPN
Experimental: (§1) Binding of FH to C3b in the presence of the anti-FH moAbs was determined by surface plasmon resonance using a Biacore T200 instrument (GE Healthcare, Little Chalfont, UK). Purified C3b (Complement Technologies) was immobilized onto a flow cell of a CM5 Biacore Sensor Chip (GE Healthcare) using standard amine coupling. The remaining flow cell was used as reference surface and prepared by performing a coupling reaction without the addition of any protein. A response of 2000 response units (RUs) was obtained after coupling with C3b. SPR experiments were performed at 37° C. using a flow rate of 10 μl/min and in phosphate buffered saline pH 7.4 (PBS, Orphi Farma) supplemented with 0.01% (w/v) Tween-20 (Merck) (PBS-T).
(§2) To determine the effect of the antibodies without interference of possible cross-linking via the moAb, recombinantly produced Fab′ fragments of the moAbs were used. Fab′ fragments were mixed with plasma purified FH (pdFH). […] Each Fab′ fragment was also injected without addition of FH to determine any interactions of the Fab′ fragments with the surfaces. The pdFH injection was followed by a dissociation of 60 seconds and surface was regenerated between each cycle by a single injection of 1 M NaCl (Merck).

[2] = target: T1, C3b; experiment: SPR on immobilised C3b, equilibrium analysis, FH with Fab′ against FH alone
Experimental: as §1, §2

[3] = target: T1, C3b; experiment: SPR, C3b amine-coupled to CM5 chip, FH (5-0.01953 µM) injected with 10 µM anti-FH.07 Fab′, equilibrium analysis; FH with anti-FH.07 Fab′
Experimental: as §1, §2
(§3) Data was analyzed using Scrubber 2 (Biologic Software) affinities were determined by equilibrium analysis.

[4] = target: T1, C3b; experiment: SPR, C3b amine-coupled to CM5 chip, FH (5-0.01953 µM) injected with 10 µM anti-FHR-1 8E4 Fab′, equilibrium analysis; FH with anti-FHR-1 8E4 Fab′
Experimental: as §1, §2

[5] = target: T1, C3b; experiment: SPR, C3b amine-coupled to CM5 chip, FH (5-0.01953 µM) injected with 10 µM anti-FHR-1 3B4 Fab′, equilibrium analysis; FH with anti-FHR-1 3B4 Fab′
Experimental: as §1, §2, §3

Row | Binder | fold increase of measured RU against FH alone [1] [fold] | increase in affinity of FH for C3b against FH alone (times) [2] [times] | Kd [3] [nM] | Kd [4] [nM] | Kd [5] [nM]
1 | B1 | ≥ 2 | 2.7 | 2200 |  | 
2 | B2 | ≥ 2 | 3.6 |  | 1660 | 
3 | B3 | ≥ 2 | 3.2 |  |  | 1900
